Measurements from PMC9668162.

Target: PAM1.4 Fab (human) (UniProt P01834)
Experiment: ELISA

## recombinant full-length VAR2CSA (variant FCR3), full ectodomain (domain or fragment)
  Kd: 12 nM
